For 22 molecules, Threshold results are on record in US20160115500A1 (University of California, published 2016).

The chains are these.
T1: GAL4 activation domain fusion (ACT) to HAB1 (UniProt Q9CAJ0 23-511, limits assumed)
T1 construct: pACT-HAB1 fusion in yeast reporter strains; also called pACT-HAB1
T1 sequence (looked up): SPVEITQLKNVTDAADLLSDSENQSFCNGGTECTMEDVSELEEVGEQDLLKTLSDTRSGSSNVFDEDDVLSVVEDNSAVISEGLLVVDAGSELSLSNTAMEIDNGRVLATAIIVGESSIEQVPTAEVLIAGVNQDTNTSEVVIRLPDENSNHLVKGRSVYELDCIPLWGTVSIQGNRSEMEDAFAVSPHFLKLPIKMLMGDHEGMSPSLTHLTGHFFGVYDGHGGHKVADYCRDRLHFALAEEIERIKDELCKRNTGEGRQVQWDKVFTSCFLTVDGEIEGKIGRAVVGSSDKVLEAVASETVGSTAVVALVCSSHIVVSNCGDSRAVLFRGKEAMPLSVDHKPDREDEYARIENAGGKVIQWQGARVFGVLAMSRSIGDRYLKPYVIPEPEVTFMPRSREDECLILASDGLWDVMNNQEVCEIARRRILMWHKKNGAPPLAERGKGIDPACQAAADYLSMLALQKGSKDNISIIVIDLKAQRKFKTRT

B1: PYR1^K59R,V164A (receptor, not shown: small tags and cut ends)
chain: MPSELTPEERSELKNSIAEFHTYQLDPGSCSSLHAQRIHAPPELVWSIVRRFDKPQTYRHFIKSCSVEQNFEMRVGCTRDVIVISGLPANTSTERLDILDDERRVTGFSIIGGEHRLTNYKSVTTVHRFEKENRIWTVVLESYVVDMPEGNSEDDTRMFADTVAKLNLQKLATVAEAMARNSGDGSGSQVT
notes: pBD-PYR1 fusion in yeast
B2: PYR1^K59R,V164E (receptor, not shown: small tags and cut ends)
chain: MPSELTPEERSELKNSIAEFHTYQLDPGSCSSLHAQRIHAPPELVWSIVRRFDKPQTYRHFIKSCSVEQNFEMRVGCTRDVIVISGLPANTSTERLDILDDERRVTGFSIIGGEHRLTNYKSVTTVHRFEKENRIWTVVLESYVVDMPEGNSEDDTRMFADTVEKLNLQKLATVAEAMARNSGDGSGSQVT
notes: pBD-PYR1 fusion in yeast
B3: PYR1^K59R,V164Q (receptor, not shown: small tags and cut ends)
chain: MPSELTPEERSELKNSIAEFHTYQLDPGSCSSLHAQRIHAPPELVWSIVRRFDKPQTYRHFIKSCSVEQNFEMRVGCTRDVIVISGLPANTSTERLDILDDERRVTGFSIIGGEHRLTNYKSVTTVHRFEKENRIWTVVLESYVVDMPEGNSEDDTRMFADTVQKLNLQKLATVAEAMARNSGDGSGSQVT
notes: pBD-PYR1 fusion in yeast
B4: PYR1^K59R,V164L (receptor, not shown: small tags and cut ends)
chain: MPSELTPEERSELKNSIAEFHTYQLDPGSCSSLHAQRIHAPPELVWSIVRRFDKPQTYRHFIKSCSVEQNFEMRVGCTRDVIVISGLPANTSTERLDILDDERRVTGFSIIGGEHRLTNYKSVTTVHRFEKENRIWTVVLESYVVDMPEGNSEDDTRMFADTVLKLNLQKLATVAEAMARNSGDGSGSQVT
notes: pBD-PYR1 fusion in yeast
B5: PYR1^K59R,V164C (receptor, not shown: small tags and cut ends)
chain: MPSELTPEERSELKNSIAEFHTYQLDPGSCSSLHAQRIHAPPELVWSIVRRFDKPQTYRHFIKSCSVEQNFEMRVGCTRDVIVISGLPANTSTERLDILDDERRVTGFSIIGGEHRLTNYKSVTTVHRFEKENRIWTVVLESYVVDMPEGNSEDDTRMFADTVCKLNLQKLATVAEAMARNSGDGSGSQVT
notes: pBD-PYR1 fusion in yeast
B6: PYR1^K59R,V164F (receptor, not shown: small tags and cut ends)
chain: MPSELTPEERSELKNSIAEFHTYQLDPGSCSSLHAQRIHAPPELVWSIVRRFDKPQTYRHFIKSCSVEQNFEMRVGCTRDVIVISGLPANTSTERLDILDDERRVTGFSIIGGEHRLTNYKSVTTVHRFEKENRIWTVVLESYVVDMPEGNSEDDTRMFADTVFKLNLQKLATVAEAMARNSGDGSGSQVT
notes: pBD-PYR1 fusion in yeast
B7: PYR1^K59R,V164H (receptor, not shown: small tags and cut ends)
chain: MPSELTPEERSELKNSIAEFHTYQLDPGSCSSLHAQRIHAPPELVWSIVRRFDKPQTYRHFIKSCSVEQNFEMRVGCTRDVIVISGLPANTSTERLDILDDERRVTGFSIIGGEHRLTNYKSVTTVHRFEKENRIWTVVLESYVVDMPEGNSEDDTRMFADTVHKLNLQKLATVAEAMARNSGDGSGSQVT
notes: pBD-PYR1 fusion in yeast
B8: PYR1^K59R,V164N (receptor, not shown: small tags and cut ends)
chain: MPSELTPEERSELKNSIAEFHTYQLDPGSCSSLHAQRIHAPPELVWSIVRRFDKPQTYRHFIKSCSVEQNFEMRVGCTRDVIVISGLPANTSTERLDILDDERRVTGFSIIGGEHRLTNYKSVTTVHRFEKENRIWTVVLESYVVDMPEGNSEDDTRMFADTVNKLNLQKLATVAEAMARNSGDGSGSQVT
notes: pBD-PYR1 fusion in yeast
B9: PYR1^K59R,V164S (receptor, not shown: small tags and cut ends)
chain: MPSELTPEERSELKNSIAEFHTYQLDPGSCSSLHAQRIHAPPELVWSIVRRFDKPQTYRHFIKSCSVEQNFEMRVGCTRDVIVISGLPANTSTERLDILDDERRVTGFSIIGGEHRLTNYKSVTTVHRFEKENRIWTVVLESYVVDMPEGNSEDDTRMFADTVSKLNLQKLATVAEAMARNSGDGSGSQVT
notes: pBD-PYR1 fusion in yeast
B10: PYR1^K59R,V164G (receptor, not shown: small tags and cut ends)
chain: MPSELTPEERSELKNSIAEFHTYQLDPGSCSSLHAQRIHAPPELVWSIVRRFDKPQTYRHFIKSCSVEQNFEMRVGCTRDVIVISGLPANTSTERLDILDDERRVTGFSIIGGEHRLTNYKSVTTVHRFEKENRIWTVVLESYVVDMPEGNSEDDTRMFADTVGKLNLQKLATVAEAMARNSGDGSGSQVT
notes: pBD-PYR1 fusion in yeast
B11: PYR1^K59R,V164T (receptor, not shown: small tags and cut ends)
chain: MPSELTPEERSELKNSIAEFHTYQLDPGSCSSLHAQRIHAPPELVWSIVRRFDKPQTYRHFIKSCSVEQNFEMRVGCTRDVIVISGLPANTSTERLDILDDERRVTGFSIIGGEHRLTNYKSVTTVHRFEKENRIWTVVLESYVVDMPEGNSEDDTRMFADTVTKLNLQKLATVAEAMARNSGDGSGSQVT
notes: pBD-PYR1 fusion in yeast
B12: PYR1^K59R,T162L (receptor, not shown: small tags and cut ends)
chain: MPSELTPEERSELKNSIAEFHTYQLDPGSCSSLHAQRIHAPPELVWSIVRRFDKPQTYRHFIKSCSVEQNFEMRVGCTRDVIVISGLPANTSTERLDILDDERRVTGFSIIGGEHRLTNYKSVTTVHRFEKENRIWTVVLESYVVDMPEGNSEDDTRMFADLVVKLNLQKLATVAEAMARNSGDGSGSQVT
notes: pBD-PYR1 fusion in yeast
B13: PYR1^K59R,V164M (receptor, not shown: small tags and cut ends)
chain: MPSELTPEERSELKNSIAEFHTYQLDPGSCSSLHAQRIHAPPELVWSIVRRFDKPQTYRHFIKSCSVEQNFEMRVGCTRDVIVISGLPANTSTERLDILDDERRVTGFSIIGGEHRLTNYKSVTTVHRFEKENRIWTVVLESYVVDMPEGNSEDDTRMFADTVMKLNLQKLATVAEAMARNSGDGSGSQVT
notes: pBD-PYR1 fusion in yeast
B14: PYR1^K59R,F108A (receptor, not shown: small tags and cut ends)
chain: MPSELTPEERSELKNSIAEFHTYQLDPGSCSSLHAQRIHAPPELVWSIVRRFDKPQTYRHFIKSCSVEQNFEMRVGCTRDVIVISGLPANTSTERLDILDDERRVTGASIIGGEHRLTNYKSVTTVHRFEKENRIWTVVLESYVVDMPEGNSEDDTRMFADTVVKLNLQKLATVAEAMARNSGDGSGSQVT
notes: pBD-PYR1 fusion in yeast
B15: PYR1^K59R,F108A,S122G,L87A (receptor)
chain: MPSELTPEERSELKNSIAEFHTYQLDPGSCSSLHAQRIHAPPELVWSIVRRFDKPQTYRHFIKSCSVEQNFEMRVGCTRDVIVISGAPANTSTERLDILDDERRVTGASIIGGEHRLTNYKGVTTVHRFEKENRIWTVVLESYVVDMPEGNSEDDTRMFADTVVKLNLQKLATVAEAMARNSGDGSGSQVT
notes: pBD-PYR1 fusion in yeast
B16: PYR1^K59R,F108A,S122G,V81C (receptor, not shown: small tags and cut ends)
chain: MPSELTPEERSELKNSIAEFHTYQLDPGSCSSLHAQRIHAPPELVWSIVRRFDKPQTYRHFIKSCSVEQNFEMRVGCTRDCIVISGLPANTSTERLDILDDERRVTGASIIGGEHRLTNYKGVTTVHRFEKENRIWTVVLESYVVDMPEGNSEDDTRMFADTVVKLNLQKLATVAEAMARNSGDGSGSQVT
notes: pBD-PYR1 fusion in yeast
B17: PYR1^K59R,F108A,S122G (receptor, not shown: small tags and cut ends)
chain: MPSELTPEERSELKNSIAEFHTYQLDPGSCSSLHAQRIHAPPELVWSIVRRFDKPQTYRHFIKSCSVEQNFEMRVGCTRDVIVISGLPANTSTERLDILDDERRVTGASIIGGEHRLTNYKGVTTVHRFEKENRIWTVVLESYVVDMPEGNSEDDTRMFADTVVKLNLQKLATVAEAMARNSGDGSGSQVT
notes: pBD-PYR1 fusion in yeast; also called pBD-PYR1^K59R,F108A,S122G
B18: PYR1^K59R,F108A,S122G,F159V (receptor)
chain: MPSELTPEERSELKNSIAEFHTYQLDPGSCSSLHAQRIHAPPELVWSIVRRFDKPQTYRHFIKSCSVEQNFEMRVGCTRDVIVISGLPANTSTERLDILDDERRVTGASIIGGEHRLTNYKGVTTVHRFEKENRIWTVVLESYVVDMPEGNSEDDTRMVADTVVKLNLQKLATVAEAMARNSGDGSGSQVT
notes: pBD-PYR1 fusion in yeast
B19: PYR1^K59R,F108A,S122G,F159L (receptor)
chain: MPSELTPEERSELKNSIAEFHTYQLDPGSCSSLHAQRIHAPPELVWSIVRRFDKPQTYRHFIKSCSVEQNFEMRVGCTRDVIVISGLPANTSTERLDILDDERRVTGASIIGGEHRLTNYKGVTTVHRFEKENRIWTVVLESYVVDMPEGNSEDDTRMLADTVVKLNLQKLATVAEAMARNSGDGSGSQVT
notes: pBD-PYR1 fusion in yeast
B20: PYR1^K59R,F108A,S122G,F159M (receptor)
chain: MPSELTPEERSELKNSIAEFHTYQLDPGSCSSLHAQRIHAPPELVWSIVRRFDKPQTYRHFIKSCSVEQNFEMRVGCTRDVIVISGLPANTSTERLDILDDERRVTGASIIGGEHRLTNYKGVTTVHRFEKENRIWTVVLESYVVDMPEGNSEDDTRMMADTVVKLNLQKLATVAEAMARNSGDGSGSQVT
notes: pBD-PYR1 fusion in yeast
B21: PYR1^K59R,F108A,S122G,A160V (receptor)
chain: MPSELTPEERSELKNSIAEFHTYQLDPGSCSSLHAQRIHAPPELVWSIVRRFDKPQTYRHFIKSCSVEQNFEMRVGCTRDVIVISGLPANTSTERLDILDDERRVTGASIIGGEHRLTNYKGVTTVHRFEKENRIWTVVLESYVVDMPEGNSEDDTRMFVDTVVKLNLQKLATVAEAMARNSGDGSGSQVT
notes: pBD-PYR1 fusion in yeast
B22: PYR1^K59R,F108A,S122G,V81I (receptor, not shown: small tags and cut ends)
chain: MPSELTPEERSELKNSIAEFHTYQLDPGSCSSLHAQRIHAPPELVWSIVRRFDKPQTYRHFIKSCSVEQNFEMRVGCTRDIIVISGLPANTSTERLDILDDERRVTGASIIGGEHRLTNYKGVTTVHRFEKENRIWTVVLESYVVDMPEGNSEDDTRMFADTVVKLNLQKLATVAEAMARNSGDGSGSQVT
notes: pBD-PYR1 fusion in yeast

The target in the first assay is T1, GAL4 activation domain fusion (ACT) to …. In words: yeast two-hybrid, X-gal; lowest dichlobenil concentration giving signal.
Molecule B1 displayed a Threshold of 100 µM.
Take B2: the Threshold is 100 µM.
In turn, B3 showed a Threshold of 100 µM.
As to B4, the Threshold stood at 100 µM.
Consider B5, for which the Threshold was determined as 100 µM.
Molecule B6 showed a Threshold of 100 µM.
On the same count and under the same terms, for B7 the value was 100 µM.
Still for that read-out and setting: for B8 the value was 100 µM; for B9, 100 µM.
B10 displayed a Threshold of 100 µM.
B11 returned a Threshold of 100 µM.
As for B12, the Threshold turned out to be 100 µM.
B13 displayed a Threshold of 100 µM.

The target is the same in the next assay. As to the kind of experiment: yeast two-hybrid, X-gal; lowest mandipropamid concentration giving signal.
Consider B14, for which the Threshold is 100 µM.
Consider B15, for which the Threshold turned out to be 0.25 µM.
In the case of B16, the Threshold worked out at 0.25 µM.
Turning to B17, the Threshold stood at 1 µM.
In turn, B18 registered a Threshold of 0.25 µM.
The molecule B19 returned a Threshold of 0.05 µM.
In turn, B20 displayed a Threshold of 0.25 µM.
On the same count and under the same terms, in the case of B21 it was 0.25 µM; in that of B22, 0.25 µM.
